Assay results published in the supplement of paper PMC11780869.

Test system: Bacillus subtilis
Assay: cleaved RNA product abundance (RNA/gDNA barcode ratio) relative to median wild-type variant (ratio to wild type); higher = more accumulation of the downstream cleavage product
Details: cleavage site: cggR-gapA (positions -7 to +36 mutated)
Procedure, shortened: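 The B. subtilis chromosome carried reporter mRNAs, truncated aprE or tetM, containing barcoded RNase Y cleavage-site windows mutagenized using oligos with a 9% error rate. After growth in LB at 37°C from OD600 0.0003 to 0.3, cleaved RNA was gel-selected, reverse transcribed and barcode-sequenced next to genomic DNA barcodes, with UMI collapsing. Each construct's RNA:gDNA barcode ratio was scaled to the median construct with the unmutated site. That scaled ratio is reported as cleaved product abundance.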

[1] = experiment (reporter, strain, medium): exp 4a: truncated aprE reporter, strain BJT201 with 2% xylose (RNase J1 expressed)
[2] = experiment (reporter, strain, medium): exp 2b: truncated aprE reporter, strain BJT200
[3] = experiment (reporter, strain, medium): exp 6: tetM reporter, strain 168

| Sequence | cleaved RNA product abundance [1] | cleaved RNA product abundance [2] | cleaved RNA product abundance [3] |
| --- | --- | --- | --- |
| ACAGACGAAGGAGCCGCAAAGAAGTTATTAAGGTATGAATAATCCCTCAATCTAAATATCTCTCACTTATTTAAA | 0.0855 |  |  |
| ACAGACGAAGGAGCCGCAAAGAAGTTATTAAGGTATGAATAATCCCTCAATGTAAATATCTCTCACTTATTTAAA | 0.0511 | 0.094 |  |
| ACAGACGAAGGAGCCGCAAAGAAGTTATTAAGGTATGAATAATCCCTCAATTTAAATATCTCTCACTTATTTAAA | 0.0555 | 0.0856 |  |
| ACAGACGAAGGAGCCGCAAAGAAGTTATTAAGGTATGAATAATCCCTCAGTATAAATATCTCTCACTTATTTAAA | 0.1 |  |  |
| ACAGACGAAGGAGCCGCAAAGAAGTTATTAAGGTATGAATAATCCCTCATTATAAATATCTCTCACTTATTTAAA | 0.107 |  |  |
| ACAGACGAAGGAGCCGCAAAGAAGTTATTAAGGTATGAATAATCCCTCCATATAAATATCTCTCACTTATTTAAA | 0.0967 |  |  |
| ACAGACGAAGGAGCCGCAAAGAAGTTATTAAGGTATGAATAATCCCTCGATATAAATATCTCTCACTTATTTAAA | 0.0744 | 0.0823 |  |
| ACAGACGAAGGAGCCGCAAAGAAGTTATTAAGGTATGAATAATCCCTCTATATAAATATCTCTCACTTATTTAAA | 0.11 | 0.0999 |  |
| ACAGACGAAGGAGCCGCAAAGAAGTTATTAAGGTATGAATAATCCCTGAATATAAATATCTCTCACTTATTTAAA | 0.0951 | 0.0773 |  |
| ACAGACGAAGGAGCCGCAAAGAAGTTATTAAGGTATGAATAATCCCTTAATATAAATATCTCTCACTTATTTAAA | 0.461 | 0.709 | 0.236 |
| ACAGACGAAGGAGCCGCAAAGAAGTTATTAAGGTATGAATAATCCGTCAATATAAATATCTCTCACTTATTTAAA | 0.0909 | 0.0647 | 0.0676 |
| ACAGACGAAGGAGCCGCAAAGAAGTTATTAAGGTATGAATAATCCTTCAATATAAATATCTCTCACTTATTTAAA | 0.126 | 0.145 |  |
| ACAGACGAAGGAGCCGCAAAGAAGTTATTAAGGTATGAATAATCGCTCAATATAAATATCTCTCACTTATTTAAA | 0.0909 |  |  |
| ACAGACGAAGGAGCCGCAAAGAAGTTATTAAGGTATGAATAATCTCTCAATATAAATATCTCTCACTTATTTAAA | 0.162 |  |  |
| ACAGACGAAGGAGCCGCAAAGAAGTTATTAAGGTATGAATAATTCCTCAATATAAATATCTCTCACTTATTTAAA | 0.156 | 0.0842 |  |
| ACAGACGAAGGAGCCGCAAAGAAGTTATTAAGGTATGAATACTCCCTCAATATAAATATCTCTCACTTATTTAAA | 0.135 | 0.0931 |  |
| ACAGACGAAGGAGCCGCAAAGAAGTTATTAAGGTATGAATATTCCCTCAATATAAATATCTCTCACTTATTTAAA | 0.0859 |  |  |
| ACAGACGAAGGAGCCGCAAAGAAGTTATTAAGGTATGAATCATCCCTCAATATAAATATCTCTCACTTATTTAAA | 0.176 |  |  |
| ACAGACGAAGGAGCCGCAAAGAAGTTATTAAGGTATGAATGATCCCTCAATATAAATATCTCTCACTTATTTAAA | 0.0732 | 0.0901 |  |

| Sequence | cleaved RNA product abundance [1] | cleaved RNA product abundance [2] | cleaved RNA product abundance [3] |
| --- | --- | --- | --- |
| ACAGACGAAGGAGCCGCAAAGAAGTTATTAAGGTATGAATTATCCCTCAATATAAATATCTCTCACTTATTTAAA |  | 0.15 |  |
| ACAGACGAAGGAGCCGCAAAGAAGTTATTAAGGTATGACTAATCCCTCAATATAAATATCTCTCACTTATTTAAA | 0.107 |  |  |
| ACAGACGAAGGAGCCGCAAAGAAGTTATTAAGGTATGAGTAATCCCTCAATATAAATATCTCTCACTTATTTAAA | 0.224 |  |  |
| ACAGACGAAGGAGCCGCAAAGAAGTTATTAAGGTATGATTAATCCCTCAATATAAATATCTCTCACTTATTTAAA | 0.153 |  |  |
| ACAGACGAAGGAGCCGCAAAGAAGTTATTAAGGTATGCATAATCCCTCAATATAAATATCTCTCACTTATTTAAA | 0.126 |  |  |
| ACAGACGAAGGAGCCGCAAAGAAGTTATTAAGGTATGTATAATCCCTCAATATAAATATCTCTCACTTATTTAAA | 0.127 | 0.108 |  |
| ACAGACGAAGGAGCCGCAAAGAAGTTATTAAGGTATTAATAATCCCTCAATATAAATATCTCTCACTTATTTAAA | 0.169 | 0.0984 |  |
| ACAGACGAAGGAGCCGCAAAGAAGTTATTAAGGTCTGAATAATCCCTCAATATAAATATCTCTCACTTATTTAAA | 0.0753 |  | 0.101 |
| ACAGACGAAGGAGCCGCAAAGAAGTTATTAAGGTTTGAATAATCCCTCAATATAAATATCTCTCACTTATTTAAA | 0.144 | 0.102 |  |
| ACAGACGAAGGAGCCGCAAAGAAGTTATTAAGTAATAAATAATCCCTCAATATAAATATCTCTCACTTATTTAAA | 0.0519 |  |  |
| ACAGACGAAGGAGCCGCAAAGAAGTTATTAAGTAATGAATAACCCCTCAATATAAATATCTCTCACTTATTTAAA | 0.127 | 0.084 |  |
| ACAGACGAAGGAGCCGCAAAGAAGTTATTAAGTAATGAATAATCCCTCAATATAAATATCTCTCACTTATTTAAA | 0.099 | 0.102 |  |
| ACAGACGAAGGAGCCGCAAAGAAGTTATTAAGTCATGAATAATCCCTCAATATAAATATCTCTCACTTATTTAAA | 0.106 | 0.0957 |  |
| ACAGACGAAGGAGCCGCAAAGAAGTTATTAAGTGAAGAATAATCCCTCAATATAAATATCTCTCACTTATTTAAA | 0.0841 |  |  |
| ACAGACGAAGGAGCCGCAAAGAAGTTATTAAGTGACGAATAATCCCTCAATATAAATATCTCTCACTTATTTAAA | 0.0518 |  |  |
| ACAGACGAAGGAGCCGCAAAGAAGTTATTAAGTGAGGAATAATCCCTCAATATAAATATCTCTCACTTATTTAAA | 0.16 |  |  |
| ACAGACGAAGGAGCCGCAAAGAAGTTATTAAGTGATAAATAATCCCTCAATATAAATATCTCTCACTTATTTAAA | 0.103 |  | 0.113 |
| ACAGACGAAGGAGCCGCAAAGAAGTTATTAAGTGATAAATAATTCCTCAATATAAATATCTCTCACTTATTTAAA | 0.0999 |  |  |
| ACAGACGAAGGAGCCGCAAAGAAGTTATTAAGTGATCAATAATCCCTCAATATAAATATCTCTCACTTATTTAAA | 0.137 | 0.0674 |  |

| Sequence | cleaved RNA product abundance [1] | cleaved RNA product abundance [2] | cleaved RNA product abundance [3] |
| --- | --- | --- | --- |
| ACAGACGAAGGAGCCGCAAAGAAGTTATTAAGTGATGAAAAATCCCTCAATATAAATATCTCTCACTTATTTAAA | 0.0967 | 0.118 |  |
| ACAGACGAAGGAGCCGCAAAGAAGTTATTAAGTGATGAACAATCCCTCAATATAAATATCTCTCACTTATTTAAA | 0.109 |  |  |
| ACAGACGAAGGAGCCGCAAAGAAGTTATTAAGTGATGAAGAATCCCTCAATATAAATATCTCTCACTTATTTAAA | 0.0723 | 0.0943 |  |
| ACAGACGAAGGAGCCGCAAAGAAGTTATTAAGTGATGAATAAACCCTCAATATAAATATCTCTCACTTATTTAAA | 0.0945 | 0.113 |  |
| ACAGACGAAGGAGCCGCAAAGAAGTTATTAAGTGATGAATAACCCCTCAATATAAATATCTCTCACTTATTTAAA | 0.109 |  |  |
| ACAGACGAAGGAGCCGCAAAGAAGTTATTAAGTGATGAATAATACCTCAATATAAATATCTCTCACTTATTTAAA | 0.0926 | 0.109 |  |
| ACAGACGAAGGAGCCGCAAAGAAGTTATTAAGTGATGAATAATCACTCAATATAAATAACTCTCACTTATTTAAA | 1.16 |  |  |
| ACAGACGAAGGAGCCGCAAAGAAGTTATTAAGTGATGAATAATCACTCAATATAAATATCTCTCACTTATTTAAA | 1.13 | 0.81 |  |
| ACAGACGAAGGAGCCGCAAAGAAGTTATTAAGTGATGAATAATCCATCAATATAAATATCTCTCACTTATTTAAA | 0.165 | 0.153 |  |
| ACAGACGAAGGAGCCGCAAAGAAGTTATTAAGTGATGAATAATCCCACAATATAAATATCTCTCACTTATTTAAA | 0.0805 | 0.0986 |  |
| ACAGACGAAGGAGCCGCAAAGAAGTTATTAAGTGATGAATAATCCCCCAATATAAATATCTCTCACTTATTTAAA | 0.127 |  |  |
| ACAGACGAAGGAGCCGCAAAGAAGTTATTAAGTGATGAATAATCCCTAAATATAAATATCTCTCACTTATTTAAA | 0.146 | 0.143 |  |
| ACAGACGAAGGAGCCGCAAAGAAGTTATTAAGTGATGAATAATCCCTCAAAATAAATATCTCTCACTTATTTAAA | 0.124 | 0.102 |  |
| ACAGACGAAGGAGCCGCAAAGAAGTTATTAAGTGATGAATAATCCCTCAACATAAATATCTCTCACTTATTTAAA | 0.0935 |  |  |
| ACAGACGAAGGAGCCGCAAAGAAGTTATTAAGTGATGAATAATCCCTCAATAAAAATATCTCTCACTTATTTAAA | 0.0655 |  | 0.11 |
| ACAGACGAAGGAGCCGCAAAGAAGTTATTAAGTGATGAATAATCCCTCAATACAAATATCTCTCACTTATTTAAA | 0.057 | 0.102 |  |
| ACAGACGAAGGAGCCGCAAAGAAGTTATTAAGTGATGAATAATCCCTCAATAGAAATATCTCTCACTTATTTAAA | 0.0533 |  |  |
| ACAGACGAAGGAGCCGCAAAGAAGTTATTAAGTGATGAATAATCCCTCAATATAAAAATCTCTCACTTATTTAAA | 0.124 |  |  |
| ACAGACGAAGGAGCCGCAAAGAAGTTATTAAGTGATGAATAATCCCTCAATATAAACATCTCTCACTTATTTAAA | 0.116 |  |  |
